Values quoted from earlier work, collected in paper PMC8878198.

Target: CXCL8 (Homo sapiens) (UniProt P10145)
Sequence (P10145 28-99): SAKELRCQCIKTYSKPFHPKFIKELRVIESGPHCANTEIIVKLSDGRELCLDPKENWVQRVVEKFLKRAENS

Sequence of CXCR2 (P25025 whole entry): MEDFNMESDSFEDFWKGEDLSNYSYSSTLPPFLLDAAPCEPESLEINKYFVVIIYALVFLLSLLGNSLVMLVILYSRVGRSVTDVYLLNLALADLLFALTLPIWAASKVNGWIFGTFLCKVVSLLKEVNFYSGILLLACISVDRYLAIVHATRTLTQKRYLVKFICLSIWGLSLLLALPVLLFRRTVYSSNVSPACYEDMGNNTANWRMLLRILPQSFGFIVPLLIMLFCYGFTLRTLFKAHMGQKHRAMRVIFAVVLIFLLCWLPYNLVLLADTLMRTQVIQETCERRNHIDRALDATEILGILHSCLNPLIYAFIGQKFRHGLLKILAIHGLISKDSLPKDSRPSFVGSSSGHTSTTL

- Kd: 0.7 nM
Substance: CXCR2 (from UniProt P25025)
